This note sets out measurements from patent US20110129481A1.

Assay [1] deals with human c-Met/Fc fusion protein (R&D Systems, Inc.) (human) (UniProt P08581). The assay can be described thus: ELISA, plate-bound c-Met/Fc (2 ug/ml), anti-mouse IgG-HRP.
In assay [2] the target is mouse c-Met/Fc fusion protein (R&D Systems, Inc.) (mouse) (UniProt P16056). The description is as above.
Sequence of UniProt P16056 (P16056 25-931 limits assumed): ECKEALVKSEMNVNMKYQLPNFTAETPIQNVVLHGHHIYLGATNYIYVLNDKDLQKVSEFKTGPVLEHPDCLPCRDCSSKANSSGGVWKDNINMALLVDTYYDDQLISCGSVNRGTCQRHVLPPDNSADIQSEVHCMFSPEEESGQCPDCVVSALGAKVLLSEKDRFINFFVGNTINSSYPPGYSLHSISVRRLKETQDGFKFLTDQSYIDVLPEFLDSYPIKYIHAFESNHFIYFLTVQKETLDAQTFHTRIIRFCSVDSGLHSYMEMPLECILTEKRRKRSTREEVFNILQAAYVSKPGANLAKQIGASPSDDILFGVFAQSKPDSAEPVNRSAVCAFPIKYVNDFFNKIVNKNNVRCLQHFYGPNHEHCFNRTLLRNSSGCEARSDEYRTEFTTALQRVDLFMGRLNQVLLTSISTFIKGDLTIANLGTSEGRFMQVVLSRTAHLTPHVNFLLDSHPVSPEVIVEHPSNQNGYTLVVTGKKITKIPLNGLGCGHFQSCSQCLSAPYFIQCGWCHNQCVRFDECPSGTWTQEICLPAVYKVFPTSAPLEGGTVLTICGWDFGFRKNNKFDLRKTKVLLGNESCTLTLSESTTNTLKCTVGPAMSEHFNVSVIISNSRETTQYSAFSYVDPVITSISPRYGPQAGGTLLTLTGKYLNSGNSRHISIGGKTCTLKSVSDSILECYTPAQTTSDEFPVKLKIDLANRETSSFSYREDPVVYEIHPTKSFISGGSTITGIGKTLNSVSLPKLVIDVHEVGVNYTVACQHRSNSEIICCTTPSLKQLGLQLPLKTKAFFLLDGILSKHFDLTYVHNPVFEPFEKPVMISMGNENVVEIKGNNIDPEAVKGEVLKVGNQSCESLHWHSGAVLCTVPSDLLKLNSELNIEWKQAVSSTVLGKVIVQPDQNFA

Sequence of UniProt P08581 (P08581 25-932 limits assumed): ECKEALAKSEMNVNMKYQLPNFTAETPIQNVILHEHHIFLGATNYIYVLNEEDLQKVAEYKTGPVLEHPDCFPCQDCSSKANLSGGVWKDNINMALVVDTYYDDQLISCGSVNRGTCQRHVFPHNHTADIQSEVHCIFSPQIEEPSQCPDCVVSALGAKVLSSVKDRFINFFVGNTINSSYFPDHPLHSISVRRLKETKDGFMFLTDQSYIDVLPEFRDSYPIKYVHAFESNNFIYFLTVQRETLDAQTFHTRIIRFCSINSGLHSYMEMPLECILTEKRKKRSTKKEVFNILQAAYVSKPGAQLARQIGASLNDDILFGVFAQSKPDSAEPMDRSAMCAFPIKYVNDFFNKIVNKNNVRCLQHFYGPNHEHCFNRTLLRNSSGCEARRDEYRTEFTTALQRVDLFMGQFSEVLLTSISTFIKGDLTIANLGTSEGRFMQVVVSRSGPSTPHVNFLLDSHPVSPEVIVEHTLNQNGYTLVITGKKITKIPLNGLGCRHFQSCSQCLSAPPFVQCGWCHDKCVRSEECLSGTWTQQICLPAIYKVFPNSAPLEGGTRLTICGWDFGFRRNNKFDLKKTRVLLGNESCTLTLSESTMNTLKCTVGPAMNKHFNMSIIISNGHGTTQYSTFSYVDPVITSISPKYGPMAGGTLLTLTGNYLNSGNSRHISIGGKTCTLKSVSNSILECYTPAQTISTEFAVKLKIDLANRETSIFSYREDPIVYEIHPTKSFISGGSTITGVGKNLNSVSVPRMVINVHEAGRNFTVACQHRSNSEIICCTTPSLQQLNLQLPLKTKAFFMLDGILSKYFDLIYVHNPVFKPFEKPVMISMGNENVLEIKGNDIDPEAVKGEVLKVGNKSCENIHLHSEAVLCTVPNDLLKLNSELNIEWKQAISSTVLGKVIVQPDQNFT

Take “monoclonal antibody against human c-Met, 5D5 (Genetech)”: the absorption at 450 nm turned out to be 0.373 in assay [1] and 0.113 in assay [2].
